From the domain aggregation screens of Martell et al. (2025)

Assay: soluble fraction after stress (log2 fold change); higher = more stays soluble; pooled small domains, quantitative proteomics
Conditions: stress: 75 degC
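Further: 20 min heating vs room temperature control held 20 min.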

| Sequence | soluble fraction (log2) |
| --- | --- |
| HMSLAATLSPREIDTVRLIAVGSSNKEIARQLGIAETTVKIHVQHILRKLNLTSRVQVAVFANAEGII | -0.931 |
| HMFTEEEMTKLRHELILAGIRLSRELGLQRMSVEKITSAVGIAKGSFYIFFDSKEDFILEIADHANRE | -1.1 |
| HMGSALLEAGADDAGQRLDQWLAAKLGPSISRSRVQALIKQGAVLVGGKPAGEAKRKLVAGDVVSVALPEP | 0.0393 |
| HMTKYEKKIFEIVNASRDHLTAEQVLAALREEYPAVSQATVYNNLKKLTSDGLLRKLTLADSPDRYD | -0.202 |
| HMIGVIVDEVDPDSSLKSGDIITEVNREVILNIDDFVGLVEQIQKTGRSSLLLKILRDKKSLWVTIQFV | 0.267 |
| HMNETNKMPNLVNQTDSSAIAQLNAMELGLKITTKEESSETVLAGYVIRTEPAADTELTKNQAVTVYVS | -0.00951 |
| HMKSARQIAILEIIAEKSIETQEDLADALRLRGFQVTQATVSRDIKELRLVKALAPDGTYRYATAEK | -1.57 |
| HMNDNTAINEFKKMVFTRMVHLQIDNAELSKLSGVTNSKILALKYGNSNTLKLGDIVKVAKTLNINLNDL | -2.86 |
| HMENVMLRNFAIQATEAGVIKLLEDQRTFVWGSNNKKFMTVPFDEHPYSAMAAFFKTDEGLEIYKSIEKKF | -1.97 |
| HMDGASVQRITELTATLNRYRHEYYNLAKPSVSDAVYDRLFDELAALEQKTGIVLSNSPTQTV | -0.326 |
| HMVEPLIVRNFSINYADIDKLETKIKDYISNSDKSGVNRGRVTSDTRTNMLIVTETASKLAQVEQLLKALD | -0.279 |
| HMAPNKLQQQEVWTKALPLLQQMIMTIRQIDAAGGDSSPERELLEETAARFDETLDVERFLP | -0.339 |
| HMDEEAIELTQEVMKLPPKQREVILLYYYHGLTGKEIAKALGISGAAVSKRLKQAKNQLHFALK | -0.282 |
| HMGARHPLPYPFARAHGLLLEADGERSTLWASTNVSPAALSEVMRKYAVDVIEEEPPETLSQRIAAAYAA | -0.155 |
| HMENEIVMPVQINGKKRGDLTIARDADQASIQKAVLELDFVKAALNGGSPKKVIVVPQRIVNVV | 0.338 |
| HMGSRRFGDSNHAAKLTEEQVVEIRELAAAGATTKFLAEMVGMHPNYVGLILRGLSWPEAGGPLRVA | 0.126 |
| HMSEPTVVAINETLTSERLDRYLTTQLPHISRGGIQRLLRKGNILVDGKPAKPTQHPVAGQTVEITWPIPK | -0.607 |
| HMDITGIGIKKRIKAIIDSEDKKNPLSDTQIVEILKNEGLEISRRTVAKYRSDLQIPSSSKRKK | 0.143 |
| HMDPSKMKIDELEIATRTATALADGGIKSVAGLIRKSASALKELDGVGDKAIAEITEALEKLGLELKG | 0.106 |
| HMAKQQTTTTAHVVTTGETLYSIAQKNGISVEELKKSNNITSDKLRPGQTLHITKVSKTSSTAK | 0.87 |
| HMPLNAHIVGRGKRDRRGKRGAPYSIVLELGRDENGKRIQKWYSGYPTKAAAEEDKIRMLRELQTGEYVPQ | -0.889 |
| HMQVDENNINKRIDKYLSENTEYSRSTIQKMIDNGNITVNSKPTKSSYKLELNDIITIDNNFKE | 0.0359 |
| HMDKNNLLIIYRTNSEGTPYAFSVTPSAKSLDALHKDAKEMLPFLEKSMNNFFSIQIWERAEYLKY | -0.785 |
| HMQPLGHDLTERELDVLALMVTGMNNSEIADKLVVSRSTIKYHVSNILSKLQATSRTEAVAYALQQNLVH | -2.51 |
| HMELLTYREMDVLNLLDQRLTNKEIAHALGISTETVRQHTVNLFRKLNVDNRRQAIVVARSLGYIGTPT | -2.97 |
| HMEVDDEAIYQGHEPSIRLHRLLKDVGYNSALLPSVVTQIFKDFPGIELAKALPIAMQLLNED | -0.617 |

| Sequence | soluble fraction (log2) |
| --- | --- |
| HMKEFEINSQWKPSLEVYDILSVKGGISRNFIEDSIPEFVLYWRGRGDKSNTWDSKFVQHVKRQWNFYSGL | -2.43 |
| HMPMIQHFHRMISAALGISEKQIVQTLGLLNDGATIPFISRYRKEVTGGLDEVQIESIKTHYEKLNEIAK | -2.33 |
| HMQDENAVTYLLEIKNADANDIASVLKTLKSPDADVVVYKTLNMIIFTGQGSEINGLVKVARQLDRK | -2.04 |
| HMTSPQGIERFLASGVIEGVGKAMAARIVAVFGGQTLEIIEKQPHRLREVRGIGVKTAEKIHASYQEKA | -0.841 |
| HMSHSVLIDISQLRIGMYIQLDVGWMHHPFPVSSFRVASLEQIEALRTLNLAQVRYFPAKSDPV | -3.51 |
| HMGISEKVINIIETYTMIARKKYPSVKSLAEHFNVSERTVHRYLEIIKMIDVVDYDREKKGYFFPYGDR | -3.08 |
| HMENMRLILASNLRRIREERRLSLNKVSELTGVSKSMLGQIERGESNPTLQTVWKIANGLRVSLTDLTEVP | -2.66 |
| HMHPFELNTVTEGQLKRLPFLSDLQIRELLEYRSRYGKMLTLYELKNVEAFDLETISLLVPFIYISEI | -1.36 |
| HMDIVEIYVGEEDGERIDSYLAQELNNVSRSYVQGLIKNQLITVNGNHVKPKHIVKEGEHIIVNIPPPKV | -0.0948 |
| HMNLLDYDFFEKMSSKEQEEIVEKVYIDFLNKSTGTNSPFYLKLFEKGKKSYIVNWLNENNF | -1.77 |
| HMVAPKDIVMPSFVGKKYTDVVNTPNSSYTFEFKKDEKNSSDYAVGFIMDQKPKAGETVKSNATVTLIVSK | 0.0603 |
| HMTGQHFDLEDTDGNLVYEIDSTVPLKTFYIYDAMHTEIFRMTKELLHALPTYRFYLYGEPYGVLKKQ | -0.192 |
| HMVITATYTDFMDALEADEVKQVQFSSTEINYTIEKGGHVQYFKTGVVDNPQLPQILREKGVTYAAEIP | -0.512 |
| HMTSAPHHIAAVLRDAIYRGVLEEGGPLHQARIAQSLGVSPIPLREALRLLETEGLVEFRGYRGAFVT | -0.557 |
| HMNLGVIYSLKAEVRSEPNTFSTRLFEVHEGLKVSINQLENDWVEIELLDGKTGWISNDQIRLI | -2.61 |
| HMVQDDLRELEGISTELLAKLADAGITNRDDLADLAIDELVAITGQSEDDAKALIMKAREHWFAGDA | 0.0246 |
| HMKTEVNITPGIIDWIERYVQTDKISSSMTEDFQHWKSGTKKPTFNQVEAFSKAINVPLGYFFLKTPPAE | -0.725 |
| HMRPLISQTLRIDRGEGDIAGPLGVLAKEYPHLSMGSYPFQKDGIYGAHVVIRGSDPGMVEAAMDKLKAAF | 0.338 |
| HMHKLTIEEALNYKTPANAGGPYSGKPFRDIYDQRGKAAVISFAKYYLSKATPEDPMVEVYRTLLDGAMEL | -1.61 |
| HMQSEISRIGRILKERRLQLGYTQEYAAEKAGISYSYYTKIERGQQLPSLEVAMVLSKTFSLSMDRWL | -4.78 |
| HMAQTSAELIIEYLKRNDGFMELTDKSPADEIYETFGISKKNFKMAVGSLYKNRVIEIGQNGIRLVE | -0.426 |
| HMERPPHELLSDREYQTMVMIASGRTLTQIAEEMSLSPKTVSVYRARLLEKMKLKNNAELTHYALKHKLV | -1.89 |
| HMSTTHLTASVIKDKVNVRSEADSQNGAIIDKARTGERLLVTDYGNKWTGIVLPDGKRGYIMTEYLQF | -0.114 |
| HMSFYSVVISQDGSMLVAENRNEIYSNEELLELASEVNEKTGTIGTIGSLMYYKADKGGYTLITFLDNS | -4.18 |
| HMHKFMEQNQDRRLSRMKELIGILSEAAKTYYQESREIMSNFQYDRMYDELLELEKETGVVMAGSPTQKV | -0.276 |
| HMSLNHDIWVQELKEKRSGYGISQSRLAIAAGMTRQYLSDIETGKVLPSAERKAAITEALERFNPD | -0.348 |

| Sequence | soluble fraction (log2) |
| --- | --- |
| HMIKNDIGKFIKLYRETHQWSQRELAEHLGVSQRNVSYYEKGERIPPADVLKKLSTLFDVPVDVLLGLK | -1.18 |
| HMRMSPRERKIYQFIENHPGTKSGEMAEKLGIPLPTIKRLLSDMVASKLLQKHGTGAGTNYSIEE | 0.43 |
| HMGMAETTARILQLLGLLQSRRGWSGQELAERLGVTTRSVRRDVERLRELGYPVHASAGHGGGYQLGA | -2.18 |
| HMDTSKIDYSEFITMLDKGEVESVVLKSDTLTVTLKHGTGMAAQTKTVTLMEDLSELTKRLEKAGVKSFDK | 0.614 |
| HMTSDADSLRDKTGYVAEQVTSKGGKVNLYDGGFDSLYSARSTGETISTGTEIRVVDPGGGNMLVVEPV | 0.948 |
| HMQITAPVQKIDGVEYYMHKVEQGQTLYSISKLYNVGVKEIQKANQLGTEGIQLGQVLKVRKGG | -0.2 |
| HMQPQYSVLFSNIEEKDGGSIITLLQQGNVPYKVENGGTTILVPANRANELRLTLAAQGLPK | 0.449 |
| HMNNLLEDIKARLMAQAEAGGHIDTETELAEHFGVTRYRIRKELDLLSQMGLLRRQPKNGIEVLTV | -0.171 |
| HMDLVESYDLKIIYTSELINLLIDSSRLEEALNLFKDLKDEIDDVENLGFSAKNNLDYMESKLLHLG | -1.94 |
| HMNTEEVGSYLKKLRLEHSFTQKELAGKLYITHQAVSNWEKGKALPDIGILSQLGDIYGISIDNLLLK | -2.04 |
| HMPVGSIGERLKALRLKAGLTQEEVGQHVHISKQTLYKYENGIVTNIPADKIELLATIYSVTPAYIMGWA | -2.27 |
| HMPNIHVVFAEEWTDRRLDKVLSEYFDGYSRSFIKKLFDDGLILVNSKAVKPSYKVRAGDMIDISVPDPV | -1.83 |
| HMANSLLVTAQAGGQKLFNFLKRSLHAENNEIHRWIRTGQVRINKKRTKAFDIVHENDEIRIPPFALNR | -0.444 |
| HMQKFINQEHEKAYNLMLEKDYQQALKIFDDLIYLFPNEANLLSDRGVIFIHLNKKEAALQDFDQAVF | -1.97 |
| HMEALTPREREVLTLMGQGRSNAEIATLLSIAPRTAKVHVQNILSKLGATNRTEAVSLAVRQGLIS | 0.343 |
| HMTNEPRLTNMGFNKMLIENYKMILEYQDFFIRISTQIGIININGFDLKLGEMTADEVLVTGKIESIDL | 0.429 |
| HMTTGEIIQRERTRLGLSQEKLAEQVGVSRQAVSKWELGDAVPDTDKLVPLARTLGISVDTLLD | 0.12 |
| HMGTRHPLPYAYARANTVLLEDDGDRLVLWAPENVSLTALGEVLRRFDVDALERESSSTLANRIAVAYAG | -0.774 |
| HMTTPDIIVPDVKGMTVAEAQKALEEKGFKVKLEEMTQEGAVPGDVIRIDPVAGTKRKEGAKITLLIARG | -0.0237 |
| HMTELKKTAVDTWVKDLGTEQALAKLDTLAVVKLRRLAREYKAFGIAGRAISKADKGMLLAEFRAYYEN | -2.08 |
| HMPQQVFKREDLQKWGLTGQADSRKRREKLGQLLGIGYGNGKQLIHRLNMFQVDRATFEQAIKQINQEEDH | -0.539 |
| HMAHPRTHEALNPLWEKYLGPNAGNDFFLSGGTSLKALMFLKDLEKTLNKRIAIHAFFKDPTYEHVVSD | -0.84 |
| HMQVRVERSRDKVVISGVNYYIHPVRKGETVYSIARAYGITTQDLVRENPSAAEGLKEGQSIRIPERLVD | -0.438 |
| HMAGLELVVTREQAGRTVKSLLRGELGISTALMGRLKRTGTGLTVNGTRVFTNAVLREGDRLAVDLDAAE | -1.35 |
